{"source": "paper PMC8040265", "about": "“A polysaccharide utilization locus from the gut bacterium Dysgonomonas mossii encodes functionally distinct carbohydrate esterases” (The Journal of Biological Chemistry, 2021)", "proteins": {"B1": {"name": "DmCE1B_ct (Dysgonomonas mossii DSM 22836) (protein)", "chain": "AEVGISASTNIPGAQYPQILSGNRVLFRIKAPDAKRVQVDLGKKYDMVREEEGSWAITTDPIVEGFHYYSILIDGVAVCDPASRTFYGMSRMASGIEIPEEGVDYYNLKNVPHGQIRQIRYFSDVTKAWRRAFVYTPAGYDANTSQRYPVLYLQHGGGEDETGWPNQGKMDAIIDNLIAEGKAKPMIVVMDNGYAVDPSASSANSPQGLRGLFQNSALEKVFINEIIPLVDKEFRTIADRDHRAMAGLSMGGFQAFQIAMTNLDKFAYVGGFSGGGIIEQGGDFSKMYNNVWSDVDTFNKRVKLIYLSIGTAEPTNMYQTVNNFHKEFEKAGIKHVYYESPGTSHEWLTWRRSLNQFAELLFK", "notes": "dimer; IMAC purified from E. coli BL21(DE3)"}, "B2": {"name": "DmCE6A (Dysgonomonas mossii DSM 22836) (protein)", "chain": "QDKFHVFLCFGQSNMEGHAKIEAQDTIDIDGRFMMLQTVDCPELGRFKGNWYKAIPPLARCHTGLSPADYFGRTMVANLPSDTKVGVINVAVGGCRIELFDKENFQSYVDQSPEWLKNMVNEYDGNPYVRLIEMAKLAQSQGGVIKGILLHQGESNNGETDWPEKVRKVYDNILKDLNFEPNSIPLLAGELLDEEQYGACANMNLIINTLPNVIPNAHVISSKGCEGVKDRLHFSAAGYRTLGSRYAEKMLQLYNENSLKK", "notes": "signal peptide removed; single CE6 domain; pET28a-TEVc, IMAC purified from E. coli BL21(DE3)"}, "B3": {"name": "DmCE1A (Dysgonomonas mossii DSM 22836) (protein)", "chain": "QDLEGSISSEYNIPEGQYPIVNKDLSATFRIQAPSAQSMQVDICGKKYPMTKDAAGIWEATTDPLVVGFHYYFLLIDGVSVVDPASQTFFGCGRMASGIEIPEPRAESAYYSYQKDIPHGQVRECYYFSKVEGKQRRCFLYTPAEYETNPTKRYPVLYLQHGMGEDETGWSRQGKMAFILDNQISEKKCVPMIVVMDYGNCGYIHGTKKGESQKEFGALFTPILINDIIPYIDSNFRTLSDRDNRAMAGLSWGGHQAFETTLNNIDKFSHIGAFSGALFFLKEDNLKKAYNGVFAQPNVFNKKVHTLFLGMGSEEGMGSKRISEFLKANGINNTYYESAGTHHEWLTWRRCLNQFLPLIFKQN", "notes": "signal peptide removed; N-terminal CBM48 + CE1 domain; pET28a-TEVc, IMAC purified from E. coli BL21(DE3)"}, "B4": {"name": "DmCE1B_nt (Dysgonomonas mossii DSM 22836) (protein)", "chain": "ISQNYKSVPNGYDIPRTGISHGQIDTVTYYSKTVDTNRKALVYTPPGYSKNKQYPVLYLLHGIGGDEKEWFSHGQPQVILDNLYADKKIVPMIVVLPNGRAMKDDRAIGNIMEAPKVEAFATFEKDLLNDLIPFIQKTYPVLKNQENRALAGLSMGGGQSLNFGLGNLDIFAWVGGFSSAPNTKTPEVLVPNPDDAKKKLKLLWISCGDKDGLLSFSKRTHDYLAKNQVPHVYQVIPNGYHDFNIWKQNLYMFSQLLFKPVTADLIEQYSYIPEEAEVGISASTNIPGAQYPQILSGNRVLFRIKAPDAKRVQVDLGKKYDMVREEEGSWAITTDPIVEGFHYYSILIDGVAVCDPASRTFYGMSRMASGIEIPE", "notes": "N-terminal CE1 domain + CBM48 (CBM48 is residues 294-393), signal peptide removed; IMAC purified from E. coli BL21(DE3)"}, "B5": {"name": "DmCE1B (Dysgonomonas mossii DSM 22836) (protein)", "chain": "ISQNYKSVPNGYDIPRTGISHGQIDTVTYYSKTVDTNRKALVYTPPGYSKNKQYPVLYLLHGIGGDEKEWFSHGQPQVILDNLYADKKIVPMIVVLPNGRAMKDDRAIGNIMEAPKVEAFATFEKDLLNDLIPFIQKTYPVLKNQENRALAGLSMGGGQSLNFGLGNLDIFAWVGGFSSAPNTKTPEVLVPNPDDAKKKLKLLWISCGDKDGLLSFSKRTHDYLAKNQVPHVYQVIPNGYHDFNIWKQNLYMFSQLLFKPVTADLIEQYSYIPEEAEVGISASTNIPGAQYPQILSGNRVLFRIKAPDAKRVQVDLGKKYDMVREEEGSWAITTDPIVEGFHYYSILIDGVAVCDPASRTFYGMSRMASGIEIPEEGVDYYNLKNVPHGQIRQIRYFSDVTKAWRRAFVYTPAGYDANTSQRYPVLYLQHGGGEDETGWPNQGKMDAIIDNLIAEGKAKPMIVVMDNGYAVDPSASSANSPQGLRGLFQNSALEKVFINEIIPLVDKEFRTIADRDHRAMAGLSMGGFQAFQIAMTNLDKFAYVGGFSGGGIIEQGGDFSKMYNNVWSDVDTFNKRVKLIYLSIGTAEPTNMYQTVNNFHKEFEKAGIKHVYYESPGTSHEWLTWRRSLNQFAELLFK", "notes": "full length, signal peptide removed; CE1-CBM48-CE1; dimer in solution; pET28a-TEVc, IMAC purified from E. coli BL21(DE3)"}}, "test_in_all_cases": "model substrate hydrolysis, Michaelis-Menten fit", "format_in_all_cases": "biochemical, Dysgonomonas mossii", "details_in_all_cases": "37 °C", "key": {"[1]": {"substrate": "CC(=O)Oc1ccc2c(C)cc(=O)oc2c1", "description": "model substrate hydrolysis, Michaelis-Menten fit on DmCE1B_ct"}, "[2]": {"substrate": "CC(=O)Oc1ccc([N+](=O)[O-])cc1", "description": "(§1) model substrate hydrolysis, Michaelis-Menten fit on DmCE6A"}, "[3]": {"substrate": "CC(=O)Oc1ccc2c(C)cc(=O)oc2c1", "description": "as §1", "remark": "listed apart in the source"}, "[4]": {"substrate": "CC(=O)Oc1ccc([N+](=O)[O-])cc1", "description": "(§2) model substrate hydrolysis, Michaelis-Menten fit on DmCE1A", "remark": "listed apart in the source"}, "[5]": {"substrate": "CC(=O)Oc1ccc2c(C)cc(=O)oc2c1", "description": "as §2", "remark": "listed apart in the source"}, "[6]": {"substrate": "COC(=O)/C=C/c1cc(OC)c(O)c(OC)c1", "description": "as §2"}, "[7]": {"substrate": "COC(=O)/C=C/c1ccc(O)cc1", "description": "(§3) model substrate hydrolysis, Michaelis-Menten fit on DmCE1B_nt"}, "[8]": {"substrate": "CC(=O)Oc1ccc2c(C)cc(=O)oc2c1", "description": "as §3", "remark": "listed apart in the source"}, "[9]": {"substrate": "COC(=O)/C=C/c1ccc(O)c(OC)c1", "description": "as §3"}, "[10]": {"substrate": "COC(=O)/C=C/c1cc(OC)c(O)c(OC)c1", "description": "as §3", "remark": "listed apart in the source"}, "[11]": {"substrate": "CC(=O)Oc1ccc2c(C)cc(=O)oc2c1", "description": "(§4) model substrate hydrolysis, Michaelis-Menten fit on DmCE1B", "remark": "listed apart in the source"}, "[12]": {"substrate": "COC(=O)/C=C/c1cc(OC)c(O)c(OC)c1", "description": "as §4", "remark": "listed apart in the source"}}}
{"protein": "B1", "values": [{"measurement": "Km", "setting": "[1]", "result": "420 ± 100", "unit": "µM"}, {"measurement": "kcat", "setting": "[1]", "result": "11 ± 0.71", "unit": "s⁻¹"}, {"measurement": "kcat/Km", "setting": "[1]", "result": "26000 ± 6600", "unit": "M⁻¹ s⁻¹"}]}
{"protein": "B2", "values": [{"measurement": "Km", "setting": "[2]", "result": "180 ± 10", "unit": "µM"}, {"measurement": "kcat", "setting": "[2]", "result": "59 ± 0.87", "unit": "s⁻¹"}, {"measurement": "kcat/Km", "setting": "[2]", "result": "320000 ± 20000", "unit": "M⁻¹ s⁻¹"}, {"measurement": "Km", "setting": "[3]", "result": "29 ± 3", "unit": "µM"}]}
{"protein": "B3", "values": [{"measurement": "Km", "setting": "[4]", "result": "4400 ± 670", "unit": "µM"}, {"measurement": "kcat", "setting": "[4]", "result": "1.03 ± 0.07", "unit": "s⁻¹"}, {"measurement": "kcat/Km", "setting": "[4]", "result": "230 ± 40", "unit": "M⁻¹ s⁻¹"}, {"measurement": "Km", "setting": "[5]", "result": "550 ± 60", "unit": "µM"}, {"measurement": "kcat", "setting": "[5]", "result": "38.6 ± 1.26", "unit": "s⁻¹"}, {"measurement": "kcat/Km", "setting": "[5]", "result": "70000 ± 8000", "unit": "M⁻¹ s⁻¹"}, {"measurement": "Km", "setting": "[6]", "result": "180 ± 40", "unit": "µM"}, {"measurement": "kcat", "setting": "[6]", "result": "0.13 ± 0.01", "unit": "s⁻¹"}, {"measurement": "kcat/Km", "setting": "[6]", "result": "700 ± 200", "unit": "M⁻¹ s⁻¹"}]}
{"protein": "B4", "values": [{"measurement": "Km", "setting": "[7]", "result": "310 ± 90", "unit": "µM"}, {"measurement": "kcat", "setting": "[7]", "result": "0.61 ± 0.1", "unit": "s⁻¹"}, {"measurement": "kcat/Km", "setting": "[7]", "result": "2000 ± 700", "unit": "M⁻¹ s⁻¹"}, {"measurement": "Km", "setting": "[8]", "result": "300 ± 40", "unit": "µM"}, {"measurement": "kcat", "setting": "[8]", "result": "630 ± 22", "unit": "s⁻¹"}, {"measurement": "kcat/Km", "setting": "[8]", "result": "2.1e+06 ± 300000", "unit": "M⁻¹ s⁻¹"}, {"measurement": "Km", "setting": "[9]", "result": "160 ± 30", "unit": "µM"}, {"measurement": "kcat", "setting": "[9]", "result": "1.8 ± 0.13", "unit": "s⁻¹"}, {"measurement": "kcat/Km", "setting": "[9]", "result": "11000 ± 2000", "unit": "M⁻¹ s⁻¹"}, {"measurement": "Km", "setting": "[10]", "result": "290 ± 70", "unit": "µM"}, {"measurement": "kcat", "setting": "[10]", "result": "2.7 ± 0.34", "unit": "s⁻¹"}, {"measurement": "kcat/Km", "setting": "[10]", "result": "9200 ± 2400", "unit": "M⁻¹ s⁻¹"}]}
{"protein": "B5", "values": [{"measurement": "Km", "setting": "[11]", "result": "370 ± 60", "unit": "µM"}, {"measurement": "kcat", "setting": "[11]", "result": "870 ± 3", "unit": "s⁻¹"}, {"measurement": "kcat/Km", "setting": "[11]", "result": "2.3e+06 ± 400000", "unit": "M⁻¹ s⁻¹"}, {"measurement": "Km", "setting": "[12]", "result": "360 ± 100", "unit": "µM"}, {"measurement": "kcat", "setting": "[12]", "result": "5 ± 0.83", "unit": "s⁻¹"}, {"measurement": "kcat/Km", "setting": "[12]", "result": "14000 ± 4500", "unit": "M⁻¹ s⁻¹"}]}
